Source: the RNAGym collection of RNA variant scans (doi:10.1073/pnas.2313332121)

B1: TPR t1 (parent)
chain: GACCAAUCUGCCCUCAGAGCUCGAGAACAUCUUCGGAUGCAGAGGAGGCAGGCUUCGGUGGCGCGAUAGCGCCAACGUCCUCAACCUCCAAUGCAUCCCACCACAUGAUGAUGCCUGAAGAGCCUUGGUUUUUUG

Variants of: B1
Test: polymerase ribozyme fitness, log enrichment relative to wild type (log ratio); higher = more active; in vitro selection for triplet polymerase activity
How it was run: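 PCR was used to build mutant libraries for each subunit of a heterodimeric triplet polymerase ribozyme, which were then transcribed. A single in vitro selection round, in triplicate, used a frozen incubation at −7 °C and recovered extended constructs by gel excision, streptavidin beads and RT-PCR. Fitness is the logarithm of genotype enrichment relative to wild-type enrichment, averaged over replicates with inverse-variance weights. The logarithm is base 2, and after Illumina sequencing only genotypes with ≥10 input reads and ≥1 read per output were kept.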

Point of comparison: G10A A74G A90U G107U C115U, “polymerase ribozyme fitness (log ratio)” value -7.83. Against it:
- G10U A103U — higher, -4.38
- A41U U78A U112C — higher, 0.679
- G60U G127A — higher, -0.768
- U7C U9C — higher, 0.297
- C40U U112A U116C — higher, -1.95
- A18C A43C G113A — higher, -2.81
- C62G U126C — higher, -2.05
- A43C G117C — higher, -4.86
- C70U U87G — higher, -0.364
- G35U C64U U78C — higher, -5.42
- C8A G61U — higher, -0.146
- C56A G110A — higher, -0.447
- A6U G36C — higher, -1.42
- C8U U38G C72A U92A C115G — higher, -5.69
- G36C G120U — higher, -0.655
- G107U G113U — higher, -6.69
- G35U G39C G120A U125A — higher, -5.76
- C13U G48U G110C — higher, -4.34
- C11A G61A — higher, -1.4
- C22G G61C C124U U133C — higher, -2.74
- C11G U14G C15U A46C C73G C82A — higher, -4.14
- C62U U130A — higher, -0.419
- G23U U112G — higher, -5.53
- C70G A90C — higher, -4.87
- A84C G120A — higher, 0.816
- A24G A37U U96C G110U — higher, -3.88
- A2C C4A A5C U125G — higher, -0.48
- A24U G110A — higher, -6.09
- G69U U109A — higher, -2.79
- C72U G117C G120U U131G — higher, -5.53
- A27C U81C C124A — higher, -2.25
- U7C C11U — higher, 0.539
- A37U C62G — higher, -3.59
- A66G G122A U129C — higher, -2.27
- G44A C72A — higher, -0.836
- G25A C70U — higher, -5.76
- U38G U54C C56U G61U A111U — higher, -5.38
- G71U A121C — higher, 1.43
- G42U G77U U106A G120C — higher, -2
- G61A G128A — higher, -1.69
- A27U G52C C88U — higher, -3.31
- G10A C82A C102U — higher, -1.68
- C11A C49G G60A G93U — higher, -2.13
- A84U C101A U116G A121U — higher, -0.796
- G117A G127A — higher, -4.19
- G60C U112G — higher, -0.433
- C12G — higher, 0.29
- U55A G71C — higher, -1.29
- A29U A50G U81C C114U — higher, -1.72
- A46G C49U C86A G93A — higher, -2.56
- C53U U131G — higher, -0.948
- A91U A121U — higher, 0.873
- A26U G60U — higher, -3.37
- C8A C15G C40A U54G A90G — higher, -2.34
- G58A U125A — higher, -0.652
- C13U C62U A83C C89U — higher, -0.547
- C11U A18G A50U U96A C98U G110A A121G U134G — higher, -5.84
- G10C A37C — higher, -1.41
- C3G C62A C82G — higher, -3.81
- G58A C99U G122A — higher, -5.04
- U54C — higher, 0.321
- A5U U9A U32C A37U C49U G69A G93A — higher, -4.95
- C53U A74U U81C G120A — higher, -1.15
- G17A G39A C79U G110C — higher, -7.24
- A6C G47U — higher, -1.55
- G57A G107A — higher, -6.98
- A5G C13A C53U U59G — higher, -1.69
- C11A C13U A50U C62U — higher, -2.9
- C97U U129C — higher, -1.16
- C8A C104U — higher, 0.701
- C20G A75U — higher, -4.41
- G71C A118U — higher, -0.826
- C72U G113A U126A — higher, -2.61
- A37C G110C C124A U133A — higher, -3.68
- G69A U112A — higher, -2.26
- U92A A121U U125G — higher, -1.83
- A46U U81C A90G C114U — higher, -3.58
- U14A A29U — higher, -3.64
- C40U C53G A75G G117A — higher, -2.56
- C56U C72U C79U C101A — higher, -1.28
- G44U — higher, -1.16
- G69C C123U — higher, -0.24
- C72U C88G — higher, -0.779
- C8A G61A G63A — higher, -6.8
- C12U U33G — higher, -5.61
- C53A G57U G93C C97U — higher, -0.989
- G71U C80G G107U G117A — higher, -6.69
- C53G C56A C86U U96G G117U — higher, -3.87
- C104A A119U — higher, -2.35
- G52A G63U U129A — higher, -3.94
- C49A C124U U132C — higher, 1.03
- G69C G93C G122A — higher, -4.01
- G45U U109A — higher, -6.02
- A50G C53A C72A — higher, -0.193
- G45A G69U U112A — higher, 1.62
- A5C C20A A37G A84U A90C U109G — higher, -4.05
- C12A C89G C114A — higher, -4.11
- C20G C34A A41G C53A G69C G120C — higher, -6.31
- G52U G61U A118G U129A — higher, -1.85
- U9A G48C C72U U78C C86A C101A C114U C124U — higher, -3.88
- G17U A29G U55A — higher, -4.06
- C56U A90G C97U — higher, -0.119
- U7G C64U — higher, 0.622
- G48U G60A C85G — higher, -0.64
- A50G C53G G60U C72U C101A — higher, -3.8
- A6U A111C — higher, -0.0776
- C11A G57U G93U — higher, -3.77
- G47U C53U — higher, -1.6
- C15A U55G G71A C88A — higher, -2.35
- A16C C73G U116C G135U — higher, -3.68
- A27U A46U G61A C85U C94U — higher, -3.53
- G44A U81G U87G A90G — higher, -4.02
- G42C C72U — higher, -1.39
- U59A U81A G107A C114U — higher, -2.96
- A27G U87C — higher, -1.74
- G60A G93A U131A — higher, -0.952
- C124A U133G — higher, -0.27
- C8U A26G U54C G60U — higher, -2.1
- C15A A46C G52C A91U U129G — higher, -6.42
- C49A C70A G120C U126C U131G — higher, -1.57
- G48U U134G — higher, -0.783
- G48A C97A U112C — higher, -2.48
- C3U U9G — higher, 0.724
- A100U G110A — higher, -1.52
- G39C U112A A121U — higher, 1.84
- C8U G36C G45U C64U C101A — higher, -1.02
- A74G C86U U109A U126G — higher, -5.87
- U21A G51A G57U — higher, -2.59
- C12A C53A A108G — higher, -2.7
- U7C G17A — higher, -1.12
- U81A C86U — higher, -1.8
- A91U U116G G120C G128U — higher, -4.65
- C12A A84U G110A C114U — higher, -5.31
- U32G A43U G69U A100C U109C G117U U130A — higher, -7.2
- C13A U14A G44A C56U — higher, -2.36
- C34A C53A G61C — higher, -5.6
- G19U C56U — higher, -2.37
- A50C U55G G58C G61C U81A C124A — higher, 0.946
- G10A C13A C64A U112A — within 0.2 log units, -7.66
- A2C C13A C22A C49G G63C C123U — higher, -5.96
- U54A C73A C88A — higher, -0.61
- A24U G122U — higher, -5.4
- A37C C76A — higher, -1.6
- G25C C56U A68U A83G C123A C124G — higher, -6.66
- C3U C124G — higher, 2.17
- U33C G63A U78C C80A C99A C102A U116G — higher, -6.04
- C22A A26C A27U C86A U112C — higher, -6.59
- C8G A50U U54C G69U U106A G117A — higher, 0.535
- C11A G47A G77C A84G G128A — higher, -4.94
- C53U G117U — higher, -2.22
- G93A A105C — higher, -3.13
- G44U G61A C98A G117U — higher, -7.12
- C15U — higher, -1.37
- G117C U133A — higher, -4.07
- A6G G45U C73U C98U A111G U125A — higher, -5.29
- A26G A46G G60U — higher, -3.73
- G61A G110C — higher, -3.29
- C101G U129G — higher, -2.29
- G57C U112G — higher, 0.543
- C85A C97A — higher, -7.29
- C49U A84C — higher, -1.9
- C73A A74U C85U C94U C115U — higher, -3.24
- U9G G45A U96G — higher, -0.306
- G35U U78A — higher, -5.42
- U87G G110A — higher, -0.698
- G10C A66C C79U — higher, -2.72
